In the supplement of paper PMC12764529:
± gives the half width of the 95% confidence interval.

Legend:
[1] = folding stability dG unfold from chymotrypsin proteolysis; higher = more stable
Outline: (§1)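 Designed mini-proteins (under 80 residues, no cysteine) in a PA-tagged cDNA display construct were digested with trypsin and chymotrypsin. Each protease was used at 11 concentrations (threefold dilutions) plus a no-protease condition, followed by sequencing. K50 was inferred by Bayesian fitting of sequencing counts, and unfolding free energy was derived against a sequence-predicted unfolded-state K50 and a shared folded-state K50, per protease or combined. Only designs with AlphaFold2 dimer inter-PAE above 15 were kept.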

[2] = folding stability dG unfold from trypsin proteolysis; higher = more stable
Outline: as §1

[3] = folding stability dG unfold (combined trypsin and chymotrypsin); higher = more stable
Outline: as §1

Sequence | folding stability dG unfold [1] | folding stability dG unfold [2] | folding stability dG unfold [3]
SGFKVYIPDADLDAAVAVAKALVEKGYDTLLVDSPEVLKAIKEAIPDVKVEPVPVLPPVPPLPGEAEALFSA [r9_639_TrMRF] | 0.573 ± 0.092 kcal/mol | 0.71 ± 0.021 kcal/mol | 0.684 ± 0.076 kcal/mol
SGFTFSTLIAPDESLSITVKEPNSSTTTSFDFTVDPATGAVSATATTTPPDGKTQTFSVTIPVSPGAAALSA [r9_770_JUSTAS] | 0.924 ± 0.18 kcal/mol | 1.02 ± 0.08 kcal/mol | 0.973 ± 0.11 kcal/mol
SGKDTLILELVLEVDSEEQAQAIRDIFEALGYKVEVRVFPLPDGLIVFVRVEVPVPPPPPSLEDPELLAKSA [r9_863_TrMRF] | 2.75 ± 0.028 kcal/mol | 1.92 ± 0.092 kcal/mol | 2.57 ± 0.15 kcal/mol
SGKKKIKIYVESIEVFEDGVVKIKVKAIFPDGSEEDVIAEIRVEPDEDGRPHLLVVIRIGDKDFLLVLDASA [r9_271_TrMRF] | 3.15 ± 0.059 kcal/mol | 2.81 ± 0.11 kcal/mol | 2.96 ± 0.17 kcal/mol
SGLKPNEVKKFTFSFPVTDPVTGKEVTATVELYVSAGNPFVVVKLTVTPPDGKTETKTFVVPPGATLTIDSA [r9_88_TrMRF] | 3.598 ± 0.028 kcal/mol | 1.73 ± 0.054 kcal/mol | 3.2 ± 0.17 kcal/mol
SGLPEELARKLGLSAMTPLPDGTLVMALPDGTRVVVRIETTEVRLSPLGEPAVEVEVEVERLPAPAPEAASA [r9_648_JUSTAS] | 1.67 ± 0.018 kcal/mol | 1.5 ± 0.027 kcal/mol | 1.6 ± 0.048 kcal/mol
SGLTLTLPVAPDEELKLTLKLPNTDETVEVEAETVAETGDVFAVAVATPPNGDKKVVPAVIKVEPGEPDESA [r9_770_TrMRF] | 0.332 ± 0.16 kcal/mol | 0.704 ± 0.038 kcal/mol | 0.642 ± 0.12 kcal/mol
SGLTNLRVEAELVPPGVLRVTFTEGGKPVYELTFTVVVPAPPVVEPVLLPNGVPALVVYDPATGKPVVYPSA [r9_343_TrMRF] | 3.27 ± 0.11 kcal/mol | 2.17 ± 0.13 kcal/mol | 2.86 ± 0.08 kcal/mol
SGMDTVTPTTSTTQYFVEPNPEPVLSISTTTDTTTDPANPGVVTVTTTTTITDPRTGTTTTTPTTTTVPASA [r9_342_JUSTAS] | -0.564 ± 0.14 kcal/mol | 0.142 ± 0.019 kcal/mol | -0.146 ± 0.18 kcal/mol
SGMERTPLTPTETVTLTIPPGSLTITPTASPGPLTVTVTVPGSGTPTVVELPVEAPDLDAALAAVVAALQSA [r9_982_JUSTAS] | 1.39 ± 0.078 kcal/mol | 0.787 ± 0.04 kcal/mol | 1.12 ± 0.056 kcal/mol
SGMIKVSVEEKELKDGTKLYTITVEHPDPEVAKETAEKIVKEKFPKNYKVETKLTESGKVIAPVIVPKKKSA [r9_646_JUSTAS] | 1.1 ± 0.15 kcal/mol | 0.379 ± 0.09 kcal/mol | 0.9 ± 0.2 kcal/mol
SGMKSVTTPVSLTINTSPEEAEEFIEKLAKERGIEDVTVVKVTTDPATGTLTVEAELHTTIPPLPPPSSVSA [r9_918_JUSTAS] | 1.17 ± 0.061 kcal/mol | 1.07 ± 0.044 kcal/mol | 1.1 ± 0.27 kcal/mol
SGMPTVTLNVTIEFERERLSFDPKTGKPRLELVKVTKPVTITGFFTSPEEAAAAAEAVRKALEADPEALASA [r9_77_JUSTAS] | 2.37 ± 0.034 kcal/mol | 1.7 ± 0.068 kcal/mol | 2.07 ± 0.084 kcal/mol
SGMTIKILEVDFNPLGEEDEKATITLKAEIGGEEVELKIEVYRRPDGSAIAKITLILPGSGEPFEITADISA [r9_241_TrMRF] | 4.16 ± 0.13 kcal/mol | 2.61 ± 0.11 kcal/mol | 3.91 ± 0.17 kcal/mol
SGMTVTPVTHPNGQTLTLTFDPETGTVTVNRSPAISLEEVKAALEALIPSDRSVTVSTLPDGTAAVTLTASA [r9_933_JUSTAS] | 1.06 ± 0.1 kcal/mol | 1.36 ± 0.04 kcal/mol | 1.27 ± 0.059 kcal/mol
SGPAEGFEAELVEEYTLPETERVFVYRVTHPDGTEYVLVVVRNPDGTWEPVFVYRPDDPDALREALELLGSA [r9_1069_TrMRF] | 3.595 ± 0.022 kcal/mol | 3.11 ± 0.081 kcal/mol | 3.47 ± 0.057 kcal/mol
SGPIAELVKAHPGVPVEDLAKAIVDALKAQLPKDVPITVDAEVTPDGIKLNVTVEGDTEPFTFPFVVKPGSA [r9_805_TrMRF] | 1.34 ± 0.038 kcal/mol | 0.879 ± 0.024 kcal/mol | 1.2 ± 0.043 kcal/mol
